Source: patent publication US20240301067A1 (WUXI BIOLOGICS IRELAND, published 2024)
Residue numbers refer to the chain shown, from its start. Names and notes keep the numbering of the source. Values belong to the binder of their own block, whether it stands above or below them.

How the values were obtained:
[1] = target: T1, Cynomolgus PD-1 extracellular domain, hFc tag (cynomolgus, UniProt B0LAJ3 25-170); assay: ELISA competition on coated cynoPro1.ECD.hFc; competitor cynoProL1.ECD.hFc.biotin 2.5 µg/mL; experiment 1
T1 construct: Bought; also called cynoPro1.ECD.hFc; cyno PD-1 ECD protein
Protocol: Plates were pre-coated with 1 μg/mL, 100 μL per well of cyno PD-1 ECD protein (cynoPro1.ECD.hFc) at 4° C. overnight. After 1-hour blocking using 200 μL of 1×PBS/2% BSA, constant concentration of biotinylated cyno PD-L1 (cynoProL1.ECD.hFc.biotin) (2.5 μg/mL) and various concentrations of testing antibody, positive and negative control (3-fold serially diluted from 133.4 nM to 0.007 nM) were pre-mixed and added to the plates. The plates were incubated at ambient temperature for 1 hour. The binding of ligand to the immobilized protein was detected by streptavidin-HRP. The color was developed by dispensing 100 μL of TMB substrate, and then stopped by 100 μL of 2M HCl. The absorbance was read at 450 nm and 540 nm using a microplate spectrophotometer.

[2] = target: T2, Cynomolgus monkey PD-1 on transiently transfected 293F cells (cynomolgus monkey); assay: FACS on cyno PD-1 transfected 293F cells, experiment 1
T2 construct: whole, on cells; also called cell surface cynomolgus PD-1; cyno PD-1
Protocol: (§1) Cynomolgus monkey PD-1 (GenBank Accession No. NP_001271065.1) transient transfected 293F cells (2×10⁵ cells/well) were incubated with various concentrations of anti-PD-1 antibodies (3-fold serially diluted from 133.4 nM to 0.008 nM) at 4° C. for 1 hour. After washing with 1×PBS/1% BSA, the secondary antibody PE-labeled goat anti-human IgG was applied and incubated with cells at 4° C. for 1 hour. Anti-human PD-1 antibodies BMK1 and BMK3 were used as positive control. Human IgG4 isotype antibody was used as negative control. The cells were then washed and re-suspended in 1×PBS/1% BSA. MFI of the cells was measured by a flow cytometer and analyzed by FlowJo (version 7.6.1).

[3] = target: T3, Mouse PD-1 on 293F cells (mouse, UniProt Q02242 25-288); assay: FACS on 293F.mPro1.B4 cells
T3 construct: whole, on cells; also called 293F.mPro1.B4; WBP305.293F.mPro1.B4
T3 sequence (looked up): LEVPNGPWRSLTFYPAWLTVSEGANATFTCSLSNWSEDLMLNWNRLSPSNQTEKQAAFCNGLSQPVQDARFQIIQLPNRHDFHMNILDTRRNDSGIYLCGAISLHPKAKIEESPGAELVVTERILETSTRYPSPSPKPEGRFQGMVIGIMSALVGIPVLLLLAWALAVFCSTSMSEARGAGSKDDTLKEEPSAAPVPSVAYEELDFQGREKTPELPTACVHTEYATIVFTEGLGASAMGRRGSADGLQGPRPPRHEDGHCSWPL
Protocol: The cells 293F.mPro1.B4 (2×10⁵ cells/well) were incubated with various concentrations of anti-PD-1 antibodies (3-fold serially diluted from 133.3 nM to 0.008 nM) at 4° C. for 1 hour. After washing with 1×PBS/1% BSA, the secondary antibody PE-labeled goat anti-human IgG was applied and incubated with cells at 4° C. for 1 hour. Human IgG4 isotype antibody was used as negative control. The cells were then washed and re-suspended in 1×PBS/1% BSA. MFI of the cells was measured by a flow cytometer and analyzed by FlowJo (version 7.6.1).

[4] = target: T4, Human PD-1 extracellular domain, mFc tag (human, UniProt Q15116 25-170); assay: ELISA competition on coated hPro1.ECD.mFc; competitor hPro1L2.ECD.His; experiment 1
T4 construct: extracellular domain; also called hPro1.ECD.mFc; hPD-1.ECD.mFc; not shown: mouse Fc tag at C-terminus
Protocol: Plates were pre-coated with 1 μg/mL, 100 μL per well of human PD-1 ECD (hPro1.ECD.mFc) at 4° C. overnight. After 1-hour blocking using 200 μL of 1×PBS/2% BSA, constant concentration of his tagged human PD-L2 ECD (hPro1L2.ECD.His) and various concentrations of testing antibodies (3-fold serially diluted from 66.7 nM to 0.003 nM) were pre-mixed and added to the plates. After 2-hour incubation at ambient temperature, the binding of the ligand to the immobilized protein was detected by HRP-labeled goat anti-His antibody. The color was developed by dispensing 100 μL of TMB substrate, and then stopped by 100 μL of 2N HCl. The absorbance was read at 450 nm and 540 nm using a microplate spectrophotometer.

[5] = target: T2, Cynomolgus monkey PD-1 on transiently …; assay: FACS on cyno PD-1 transfected 293F cells, experiment 2
Protocol: as §1

[6] = target: T5, Human PD-1 on CHO-S cells (human, UniProt Q15116 25-288); assay: FACS on CHO-S.hPro1.C6 cells, antibody kept 0 to 14 days in human serum at 37 C, PE goat anti-human IgG
T5 construct: whole, on cells; also called CHO-S.hPro1.C6; WBP305.CHO-S.hPro1.C6
Protocol: The human PD-1 transfected cell line WBP305-CHO-S.hPro1.C6 cells (1×10⁵ cells/well) were incubated with various concentrations of serum treated W3056 anti-PD-1 antibodies (3-fold serially diluted from 129.9 nM to 0.0007 nM) at 4° C. for 1 hour. After washing with 1×PBS/1% BSA, the secondary antibody PE-labeled goat anti-human IgG was applied and incubated with cells at 4° C. for 1 hour. Human IgG4 isotype antibody was used as negative control. The cells were then washed and resuspended in 1×PBS/1% BSA. MFI of the cells was measured by a flow cytometer (BD) and analyzed by FlowJo.

T4 sequence (Q15116 25-170): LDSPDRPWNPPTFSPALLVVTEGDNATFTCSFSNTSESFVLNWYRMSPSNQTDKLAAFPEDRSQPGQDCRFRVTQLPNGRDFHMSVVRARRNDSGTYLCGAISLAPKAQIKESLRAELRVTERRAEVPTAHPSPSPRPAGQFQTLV
T5 sequence (Q15116 25-288): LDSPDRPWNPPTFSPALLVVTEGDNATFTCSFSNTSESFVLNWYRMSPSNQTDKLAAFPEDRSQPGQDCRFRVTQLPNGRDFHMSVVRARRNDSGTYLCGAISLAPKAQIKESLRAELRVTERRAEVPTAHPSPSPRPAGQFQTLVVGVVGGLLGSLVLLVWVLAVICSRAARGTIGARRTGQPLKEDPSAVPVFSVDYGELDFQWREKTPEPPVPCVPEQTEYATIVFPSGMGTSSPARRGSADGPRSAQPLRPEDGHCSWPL
T1 sequence (B0LAJ3 entry or part of it limits assumed): as the sequence (Q15116 25-170) above, with D2E, P10A, V19L, T35A, Q75R, T144A counted along it

IC50 [1]: 1.3 nM
EC50 [2]: 0.98 nM
EC50 [3]: 4.77 nM
IC50 [4]: 2.02 nM
B1: W3056-AP17R1-2H2-FC(IgG4.SP) (Fc fusion)
chain: QVQLVESGGGLVQPGGSLRLSCAASDSIDSLVNMGWYRQAPGKQRELVALIANYITHYADFVKGRFTISRDAAKNTVNLQMSSLKPEDTAVYYCYARNIIVDYWGQGTQVTVSS
notes: VHH fused to Fc of human IgG4 S228P; also called W3056 lead parental antibody (VHH-Fc(hIgG4) fusion); not shown: Fc of human IgG4 (hIgG4.S228P)

EC50 [5]: 1.98 nM
EC50 (read off the curve) [6]: 1 to 2 nM
EC50 [3]: 4.26 nM
B2: W3056-AP17R1-2H2-Z1-R1-14A1-FC(IgG4.SP) (Fc fusion)
chain: B1 chain with L11V, N53T, A72N, A73S, V77L, N78Y, S82N, K85R, P86A, Q109L
notes: also called W3056 lead antibody (VHH-Fc(hIgG4) fusion); not shown: Fc of human IgG4 (hIgG4.S228P)
